Target: T1, BRCA1-associated protein 1 (BAP1), full-length human (residues 1 to 729) (human, UniProt Q92560 1-729)
T1 sequence: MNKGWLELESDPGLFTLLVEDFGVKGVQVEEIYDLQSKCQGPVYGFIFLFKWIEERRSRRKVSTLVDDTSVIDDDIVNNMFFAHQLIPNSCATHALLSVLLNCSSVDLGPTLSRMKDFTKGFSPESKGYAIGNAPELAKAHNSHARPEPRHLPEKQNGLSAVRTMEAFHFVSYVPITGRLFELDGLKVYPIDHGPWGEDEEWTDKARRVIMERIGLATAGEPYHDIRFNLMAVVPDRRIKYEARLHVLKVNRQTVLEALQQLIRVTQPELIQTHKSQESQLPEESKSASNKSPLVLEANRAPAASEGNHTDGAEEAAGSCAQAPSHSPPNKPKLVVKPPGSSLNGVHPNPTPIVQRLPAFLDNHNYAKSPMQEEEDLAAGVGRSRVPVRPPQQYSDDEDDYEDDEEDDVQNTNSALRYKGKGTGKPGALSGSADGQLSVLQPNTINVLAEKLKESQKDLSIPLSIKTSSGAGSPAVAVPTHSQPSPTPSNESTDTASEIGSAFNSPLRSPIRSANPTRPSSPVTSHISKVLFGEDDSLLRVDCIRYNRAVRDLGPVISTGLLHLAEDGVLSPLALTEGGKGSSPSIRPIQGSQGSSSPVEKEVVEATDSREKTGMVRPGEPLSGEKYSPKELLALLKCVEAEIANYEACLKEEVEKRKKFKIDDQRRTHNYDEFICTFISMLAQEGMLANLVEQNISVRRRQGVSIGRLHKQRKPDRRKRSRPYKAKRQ
Experiment: cryo-EM structure

B1: Deubiquitinase adaptor domain (DEUBAD) of additional sex comb-like 1 (ASXL1), residues 237 to 390 (domain or fragment)
chain: PATGQMKRNRGEEIDFETPGSILVNTNLRALINSRTFHALPSHFQQQLLFLLPEVDRQVGTDGLLRLSSSALNNEFFTHAAQSWRERLADGEFTHEMQVRIRQEMEKEKKVEQWKEKFFEDYYGQKLGLTKEESLQQNVGQEEAEIKSGLCVPG
B1: binds.

Reference: article PMC10411902 (Science Advances, 2023)
